Test results taken from patent publication US20190169246A1.

Target: ApoER2 of primary neuronal culture from embryonic day 17 mice (mouse) (UniProt Q924X6)
Assay: cell-based or functional assay

Sequence of ApoER2 of primary neuronal culture from embryonic day 17 mice (mouse) (Q924X6 29-996): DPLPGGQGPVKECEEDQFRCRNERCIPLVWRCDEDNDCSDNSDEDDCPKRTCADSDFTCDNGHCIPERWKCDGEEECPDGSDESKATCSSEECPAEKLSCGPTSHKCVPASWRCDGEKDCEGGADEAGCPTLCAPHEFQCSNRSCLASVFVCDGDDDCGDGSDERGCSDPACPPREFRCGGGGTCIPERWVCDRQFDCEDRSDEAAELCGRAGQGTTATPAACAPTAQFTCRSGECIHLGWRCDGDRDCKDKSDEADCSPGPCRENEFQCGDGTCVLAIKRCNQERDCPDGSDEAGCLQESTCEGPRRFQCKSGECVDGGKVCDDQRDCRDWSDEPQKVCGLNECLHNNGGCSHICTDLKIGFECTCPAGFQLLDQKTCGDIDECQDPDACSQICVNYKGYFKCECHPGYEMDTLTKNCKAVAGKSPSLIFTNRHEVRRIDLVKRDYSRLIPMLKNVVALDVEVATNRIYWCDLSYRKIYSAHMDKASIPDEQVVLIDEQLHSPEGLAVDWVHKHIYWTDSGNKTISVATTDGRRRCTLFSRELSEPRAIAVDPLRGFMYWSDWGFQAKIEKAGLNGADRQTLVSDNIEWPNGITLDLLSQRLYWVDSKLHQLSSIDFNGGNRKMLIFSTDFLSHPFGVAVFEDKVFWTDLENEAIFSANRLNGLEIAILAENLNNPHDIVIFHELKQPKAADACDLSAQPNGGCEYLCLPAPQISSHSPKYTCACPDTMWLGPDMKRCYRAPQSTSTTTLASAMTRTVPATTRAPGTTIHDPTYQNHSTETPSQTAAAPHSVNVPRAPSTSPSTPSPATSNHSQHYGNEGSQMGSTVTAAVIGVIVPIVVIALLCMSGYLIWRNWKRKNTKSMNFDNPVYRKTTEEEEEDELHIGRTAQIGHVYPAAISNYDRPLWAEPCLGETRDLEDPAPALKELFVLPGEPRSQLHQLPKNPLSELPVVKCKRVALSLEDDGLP

Row | Substance | levels of phosphorylated ERK to total ERK, primary neurons, 60 minutes (ratio pERK/total ERK)
1 | mouse Reelin repeats R3 through 6 (from UniProt Q60841 1222-2661) (ligand) | 1.15
2 | mouse Reelin N terminal through repeat R2 (from UniProt Q60841 27-1221) (ligand) | 0.53

Further lines, results first:

Row | levels of phosphorylated ERK to total ERK, primary neurons, 60 minutes (ratio pERK/total ERK) | Substance
3 | 2 | Recombinant, human Reelin protein, R3 fragment conjugated to the R6 fragment (Reelin protein fragment R3+R6) (from UniProt P78509 1-2618) (ligand)
4 | 2.5 | full length Reelin consisting of the full length sequence and all of the naturally occurring fragments (ligand)
5 | 2.22 | Recombinant, human Reelin protein, R3 fragment conjugated to the R5 fragment (Reelin protein fragment R3+R5) (from UniProt P78509 1-2270) (ligand)
